Patent US20130266582A1 (YEDA RESEARCH AND DEVELOPMENT, published 2013)

Legend:
[1] = biological target: the molecule itself; assay: analytical size exclusion chromatography (Superdex 200) of immunopurified Flag-DAPk
Source text: Immunopurified Flag-DAPk was loaded onto an analytical Superdex™ 200 10/300 (GE Healthcare) gel-filtration column equilibrated with TBS. The eluting protein was detected by UV absorbance at 280 nm. Fractions were collected using the AKTA Prime fraction collector and analyzed by Western blot with anti-Flag antibodies. The migration position of the fractions containing Flag-DAPk was assigned relative to the migration position of Gel Filtration Calibration HMW standards (GE Healthcare) on the same column.
It elutes in two clearly defined peaks corresponding to ˜640 kDa and ˜320 kDa (FIG. 1D). […] Furthermore, the absence of a peak at the 160 kDa size range excluded the existence of monomers under native conditions. Fractions were collected at indicated elution points and submitted to western blot analysis, confirming DAPk identity at the selected peaks (FIG. 1E).

[2] = biological target: T1, HA-DAPk (N-terminal hemaglutinin-tagged human full-length death-associated protein kinase) (human, UniProt P53355 1-1430); assay: co-immunoprecipitation with anti-Flag beads from co-transfected HEK 293T cells, western blot (FIG. 2B)
T1 construct: also called HA-DAPk (WT); DAPk WT; not shown: N-terminal HA (hemaglutinin) tag
Experimental: FIG. 2A, Schematic representation of the different DAPk constructs utilized for mapping DAPk homo-oligomerization. The indicated domains: Kinase domain (KD); Ca⁺²/Calmodulin binding region (CaM); Ankyrin repeats (AK); P-Loop; Ras of complex proteins domain (ROC); C-terminal of ROC domain (COR); Death domain (DD); and Serine (Ser) rich tail. […] Immunoprecipitation with anti-Flag beads (IP-α-Flag) was performed and immuno-complexes and cell extracts were analyzed by western blot. FIG. 2C, Cells co-transfected with Flag-DAPk and one of the different HA-tagged DAPk constructs, namely HA-DAPk (WT), HA-ΔROC—a deletion between amino acids 667-954; HA-ΔKinase—a N-terminal deletion (1-285); and ΔROC/ΔKinase—deletion of both KD (1-285) and ROC domain (667-954). Immunoprecipitation and western blot were performed as in B. FIG. 2D, Cells co-transfected with Flag-ROC and HA-ROC; HA-ROC and Flag-ROC-Δ-P-loop; Flag-ROC and HA-DAPk (WT); Flag-ROC-Δ-P-Loop and HA-DAPk (WT); or HA-ROC and DAP1-Flag.
Immunoprecipitation with anti-Flag beads (IP-α-Flag) was performed and immuno-complexes and cell extracts were analyzed by western blot. […] Thus, ROC fragment by itself is sufficient to bind the full length DAPk. Also the ROC fragments interacted with each other (FIG. 2D). […] Together the experiments in FIG. 2B-D established the role of the ROC domain in mediating homo-oligomerization.

B1: Flag-DAPk (N-terminal Flag-tagged human full-length death-associated protein kinase) (enzyme)
chain: MTVFRQENVDDYYDTGEELGSGQFAVVKKCREKSTGLQYAAKFIKKRRTKSSRRGVSREDIEREVSILKEIQHPNVITLHEVYENKTDVILILELVAGGELFDFLAEKESLTEEEATEFLKQILNGVYYLHSLQIAHFDLKPENIMLLDRNVPKPRIKIIDFGLAHKIDFGNEFKNIFGTPEFVAPEIVNYEPLGLEADMWSIGVITYILLSGASPFLGDTKQETLANVSAVNYEFEDEYFSNTSALAKDFIRRLLVKDPKKRMTIQDSLQHPWIKPKDTQQALSRKASAVNMEKFKKFAARKKWKQSVRLISLCQRLSRSFLSRSNMSVARSDDTLDEEDSFVMKAIIHAINDDNVPGLQHLLGSLSNYDVNQPNKHGTPPLLIAAGCGNIQILQLLIKRGSRIDVQDKGGSNAVYWAARHGHVDTLKFLSENKCPLDVKDKSGEMALHVAARYGHADVAQLLCSFGSNPNIQDKEEETPLHCAAWHGYYSVAKALCEAGCNVNIKNREGETPLLTASARGYHDIVECLAEHGADLNACDKDGHIALHLAVRRCQMEVIKTLLSQGCFVDYQDRHGNTPLHVACKDGNMPIVVALCEANCNLDISNKYGRTPLHLAANNGILDVVRYLCLMGASVEALTTDGKTAEDLARSEQHEHVAGLLARLRKDTHRGLFIQQLRPTQNLQPRIKLKLFGHSGSGKTTLVESLKCGLLRSFFRRRRPRLSSTNSSRFPPSPLASKPTVSVSINNLYPGCENVSVRSRSMMFEPGLTKGMLEVFVAPTHHPHCSADDQSTKAIDIQNAYLNGVGDFSVWEFSGNPVYFCCYDYFAANDPTSIHVVVFSLEEPYEIQLNQVIFWLSFLKSLVPVEEPIAFGGKLKNPLQVVLVATHADIMNVPRPAGGEFGYDKDTSLLKEIRNRFGNDLHISNKLFVLDAGASGSKDMKVLRNHLQEIRSQIVSVCPPMTHLCEKIISTLPSWRKLNGPNQLMSLQQFVYDVQDQLNPLASEEDLRRIAQQLHSTGEINIMQSETVQDVLLLDPRWLCTNVLGKLLSVETPRALHHYRGRYTVEDIQRLVPDSDVEELLQILDAMDICARDLSSGTMVDVPALIKTDNLHRSWADEEDEVMVYGGVRIVPVEHLTPFPCGIFHKVQVNLCRWIHQQSTEGDADIRLWVNGCKLANRGAELLVLLVNHGQGIEVQVRGLETEKIKCCLLLDSVCSTIENVMATTLPGLLTVKHYLSPQQLREHHEPVMIYQPRDFFRAQTLKETSLTNTMGGYKESFSSIMCFGCHDVYSQASLGMDIHASDLNLLTRRKLSRLLDPPDPLGKDWCLLAMNLGLPDLVAKYNTSNGAPKDFLPSPLHALLREWTTYPESTVGTLMSKLRELGRRDAADFLLKASSVFKINLDGNGQEAYASSCNSGTSYNSISSVVSR
notes: bait in anti-Flag immunoprecipitation; also called full length DAPk; not shown: N-terminal Flag tag
binding result [1]: binds

B2: DAP1-Flag (C-terminal Flag-tagged death-associated protein 1) (other, UniProt P51397 2-102, looked up)
chain: SSPPEGKLETKAGHPPAVKAGGMRIVQKHPHTGDTKEEKDKDDQEWESPSPPKPTVFISGVIARGDKDFPPAAAQVAHQKPHASMDKHPSPRTQHIQQPRK
notes: Irrelevant Flag-tagged control protein; not shown: C-terminal Flag tag
binding result [2]: no binding
